Data as given in article doi:10.1101/329136.

How the values were obtained:
[1] = target: talin VBS1 (H1-H4) residues 482-636 (UniProt Q9Y490); experiment: ITC
[2] = target: IpaA 483-633 containing all three VBS1-3 (A483) (Shigella flexneri) (UniProt P18010); experiment: SEC-MALS
[3] = target: talin VBS1 (H1-H4) residues 482-636 (UniProt Q9Y490); experiment: SEC-MALS
[4] = target: IpaA 524-633 containing only IpaA VBS1-2 (A524) (Shigella flexneri) (UniProt P18010); experiment: ITC
[5] = target: IpaA 483-633 containing all three VBS1-3 (A483) (Shigella flexneri) (UniProt P18010); experiment: ITC

Substance | Kd [1] [nM] | further results
IpaA VTBS A495K peptide | 2930 | –
IpaA VTBS K498E peptide | 300 | –
IpaA VTBS R489A K498A peptide | 328 | –
IpaA VTBS peptide (488-512) | 174 | –
IpaA-VBS1 peptide (611-633) (from UniProt P18010 611-633) | 15200 | –
Talin VBS46 peptide | 60 | –
Talin VBS50 peptide | 15000 to 45000 | –
talin VBS1 (H1-H4) residues 482-636 (from UniProt Q9Y490 482-636) (domain or fragment) | – | stoichiometry N (talin H1-H4 per A483) [2]: 2; stoichiometry N [3]: 2; Kd [4]: 2000 nM; KD of the first, high affinity site [5]: 115 nM; KD of the second site [5]: 4600 nM
